Values quoted from earlier work, collected in PMC7468149.

How the values were obtained:
VEGFR2 (Homo sapiens) = VEGFR2 (Homo sapiens) (UniProt P35968); experiment: SPR
VEGFR1 (Homo sapiens) = VEGFR1 (Homo sapiens) (UniProt P17948); experiment: SPR
UniProt P17948, sequence (P17948 27-1338): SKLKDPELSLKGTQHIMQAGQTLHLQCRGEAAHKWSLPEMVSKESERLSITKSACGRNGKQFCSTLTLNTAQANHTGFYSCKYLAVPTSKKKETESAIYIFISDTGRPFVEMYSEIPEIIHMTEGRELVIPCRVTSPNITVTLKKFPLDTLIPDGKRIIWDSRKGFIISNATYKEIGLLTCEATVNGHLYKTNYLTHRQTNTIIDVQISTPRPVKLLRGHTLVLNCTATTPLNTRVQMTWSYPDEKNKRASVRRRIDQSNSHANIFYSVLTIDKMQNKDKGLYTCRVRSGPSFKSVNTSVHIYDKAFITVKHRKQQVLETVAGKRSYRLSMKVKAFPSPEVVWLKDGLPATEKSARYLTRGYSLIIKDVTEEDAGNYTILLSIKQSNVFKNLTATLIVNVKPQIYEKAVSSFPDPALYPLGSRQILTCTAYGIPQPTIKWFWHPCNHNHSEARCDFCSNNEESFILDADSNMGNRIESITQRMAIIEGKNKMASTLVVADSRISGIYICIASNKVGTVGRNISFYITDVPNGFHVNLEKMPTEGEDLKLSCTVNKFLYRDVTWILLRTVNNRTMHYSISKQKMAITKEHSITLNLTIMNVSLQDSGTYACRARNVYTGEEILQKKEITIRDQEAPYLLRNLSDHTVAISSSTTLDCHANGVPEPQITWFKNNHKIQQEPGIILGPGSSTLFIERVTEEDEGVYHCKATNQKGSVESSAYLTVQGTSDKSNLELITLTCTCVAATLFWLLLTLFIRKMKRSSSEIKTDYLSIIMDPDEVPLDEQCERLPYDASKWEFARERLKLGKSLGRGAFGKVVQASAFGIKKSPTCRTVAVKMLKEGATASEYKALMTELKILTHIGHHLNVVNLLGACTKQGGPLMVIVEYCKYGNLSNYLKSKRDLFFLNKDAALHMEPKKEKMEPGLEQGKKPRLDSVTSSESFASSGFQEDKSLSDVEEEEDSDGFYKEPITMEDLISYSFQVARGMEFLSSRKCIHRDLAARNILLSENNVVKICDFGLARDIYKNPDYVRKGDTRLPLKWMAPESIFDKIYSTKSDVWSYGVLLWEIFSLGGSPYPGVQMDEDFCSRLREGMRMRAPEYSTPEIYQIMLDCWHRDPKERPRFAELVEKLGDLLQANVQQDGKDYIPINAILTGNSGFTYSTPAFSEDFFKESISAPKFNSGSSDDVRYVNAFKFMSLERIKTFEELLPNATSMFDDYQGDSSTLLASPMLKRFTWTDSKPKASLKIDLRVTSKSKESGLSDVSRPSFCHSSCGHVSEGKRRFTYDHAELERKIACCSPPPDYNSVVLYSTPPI

UniProt P35968, sequence (P35968 20-1356): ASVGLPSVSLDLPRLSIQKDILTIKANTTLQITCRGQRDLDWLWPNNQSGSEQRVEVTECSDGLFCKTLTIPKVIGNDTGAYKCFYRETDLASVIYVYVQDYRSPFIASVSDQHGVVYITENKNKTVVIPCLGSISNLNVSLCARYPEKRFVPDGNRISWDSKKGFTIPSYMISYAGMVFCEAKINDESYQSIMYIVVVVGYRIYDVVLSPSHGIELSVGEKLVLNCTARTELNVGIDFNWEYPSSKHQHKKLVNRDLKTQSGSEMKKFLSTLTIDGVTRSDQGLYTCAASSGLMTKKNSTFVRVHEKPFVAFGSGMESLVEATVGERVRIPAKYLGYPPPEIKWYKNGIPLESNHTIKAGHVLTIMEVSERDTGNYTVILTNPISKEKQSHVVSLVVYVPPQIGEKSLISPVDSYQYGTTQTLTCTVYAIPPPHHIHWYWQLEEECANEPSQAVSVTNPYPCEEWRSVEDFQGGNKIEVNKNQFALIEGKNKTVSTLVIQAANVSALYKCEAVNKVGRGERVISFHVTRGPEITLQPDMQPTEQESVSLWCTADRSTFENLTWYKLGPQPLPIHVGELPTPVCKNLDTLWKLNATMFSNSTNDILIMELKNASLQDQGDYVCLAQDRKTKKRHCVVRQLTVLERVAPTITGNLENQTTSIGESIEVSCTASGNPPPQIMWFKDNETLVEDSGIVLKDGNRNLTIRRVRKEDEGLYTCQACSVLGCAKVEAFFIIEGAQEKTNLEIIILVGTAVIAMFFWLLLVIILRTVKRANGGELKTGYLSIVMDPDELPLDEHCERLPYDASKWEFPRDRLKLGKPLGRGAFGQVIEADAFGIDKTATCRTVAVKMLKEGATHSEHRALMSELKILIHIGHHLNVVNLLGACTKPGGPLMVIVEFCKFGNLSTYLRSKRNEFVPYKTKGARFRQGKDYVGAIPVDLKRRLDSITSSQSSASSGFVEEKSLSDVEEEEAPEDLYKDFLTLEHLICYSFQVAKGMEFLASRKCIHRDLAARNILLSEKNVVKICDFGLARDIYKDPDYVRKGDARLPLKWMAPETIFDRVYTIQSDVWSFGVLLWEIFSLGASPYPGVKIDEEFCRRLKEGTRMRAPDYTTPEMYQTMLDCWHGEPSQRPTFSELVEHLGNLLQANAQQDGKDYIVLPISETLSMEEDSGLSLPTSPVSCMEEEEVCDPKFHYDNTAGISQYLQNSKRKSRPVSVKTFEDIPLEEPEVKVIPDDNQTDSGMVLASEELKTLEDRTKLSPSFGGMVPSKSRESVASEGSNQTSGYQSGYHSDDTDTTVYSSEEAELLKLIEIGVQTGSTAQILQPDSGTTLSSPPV

- Kd (VEGFR2 (Homo sapiens)): 0.052 nM
- Kd (VEGFR1 (Homo sapiens)): 0.0075 nM
Substance: VEGF-A165a (from UniProt P15692)
